Measured values taken from patent publication US20250340659A1 (PETMEDIX, published 2025).
Positions count from the first letter of the chain named.

How the values were obtained:
[1] = target: T1, canine OX40L, full length membrane form, expressed on HEK293 cells (canine); assay: flow cytometry, OX40L HEK minus WT HEK
T1 construct: also called OX40L expressing HEK; HEK OX40L cells
T1 chain: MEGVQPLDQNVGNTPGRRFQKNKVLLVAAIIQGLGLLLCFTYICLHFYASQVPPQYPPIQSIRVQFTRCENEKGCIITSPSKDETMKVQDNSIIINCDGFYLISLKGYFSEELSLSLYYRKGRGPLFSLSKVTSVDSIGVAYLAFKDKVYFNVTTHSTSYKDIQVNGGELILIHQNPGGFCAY
Summary of the method: (§1)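 CHO supernatants at 1, 5 or 10 μg/ml in PBS/3% FBS incubated 30′ on ice with cells surface-expressing canine OX40L. Bound antibody detected with fluorescent anti-canine Fc secondary (1:1000, 30 min, dark) and measured by flow cytometry, with parental WT HEK signal subtracted where stated.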

[2] = target: T1, canine OX40L, full length membrane …; assay: cell-based or functional assay
[3] = target: T2, recombinant canine OX40L ECD-TNCc-HIS protein (canine); assay: SPR Koff (kd2)
T2 construct: also called Trimeric OX40L probe (HIS tag); trimeric canine OX40L
T2 chain: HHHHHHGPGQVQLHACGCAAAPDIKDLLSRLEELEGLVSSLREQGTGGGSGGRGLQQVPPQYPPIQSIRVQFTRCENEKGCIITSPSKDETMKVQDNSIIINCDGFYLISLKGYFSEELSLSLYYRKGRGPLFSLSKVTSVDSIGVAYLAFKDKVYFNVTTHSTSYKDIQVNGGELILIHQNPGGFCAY
Summary of the method: (§2)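 Purified antigen amine-coupled at low density to a CM5 chip; candidate antibodies injected as analyte over a concentration range. Kinetic curves fitted with a bivalent analyte model to give functional affinity and dissociation rates.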

[4] = target: T2, recombinant canine OX40L ECD-TNCc-HIS …; assay: SPR KD1, bivalent analyte model
Summary of the method: as §2

[5] = target: T1, canine OX40L, full length membrane …; assay: flow cytometry
Summary of the method: as §1

[6] = target: T2, recombinant canine OX40L ECD-TNCc-HIS …; assay: SPR Koff (kd1)
Summary of the method: as §2

B1: PMX060 (antibody, V domains shown)
VH: EVQLVESGGDLMKPGGSLRLSCVASGFTFSSFPMSWVRQAPGKGLQWVAYIHSGGSSTSYADAVKGRFTISRDNAKNTLYLQMNSLRAEDTAIYYCARTFPTVAADNWFYYWGQGTLVTVSS
VL: SYVLTQLPSKNVTLKQAAHITCGGDNIGSKSVHWYQQKLGQAPVLIIYYDSSRPTGIPERFSGANSGNTATLTISGALAEDEADYYCQVWDSSAKWVFGEGTQLTVL
notes: also called PMX60
GEO mean difference [1]: 3.07e+06
% Signal Inhibition Average [2]: 66.1%
% Signal Inhibition Rep1 [2]: 58.9%
% Signal Inhibition Rep2 [2]: 68.4%
% Signal Inhibition Rep3 [2]: 71.1%
koff [3]: 0.000925 s⁻¹
Kd [4]: 70.9 nM
GEO mean OX40L expressing HEK [5]: 3.1e+06
koff [6]: 0.00933 s⁻¹

B2: PMX061 (antibody, V domains shown)
VH: B1 VH with M12V, H52N, A63V, E89D, I93V, A105T
VL: B1 VL
notes: also called PMX61
GEO mean difference [1]: 3.26e+06
% Signal Inhibition Average [2]: 56.1%
% Signal Inhibition Rep1 [2]: 51%
% Signal Inhibition Rep2 [2]: 61.6%
% Signal Inhibition Rep3 [2]: 55.7%
koff [3]: 0.000729 s⁻¹
Kd [4]: 89.6 nM
GEO mean OX40L expressing HEK [5]: 3.29e+06
koff [6]: 0.00746 s⁻¹

B3: PMX063 (antibody, V domains shown)
VH: EVQLVESGGDLVRPGGSLRLSCVASGFTFNNYHMSWVRQAPGKGLQWVAFINSGGSGTTFADVVRGRFTISRDYAKNALYLQMNSLRAEDTAVYYCASGSIWTHFDYWGQGTLVTVSS
VL: SFVLTQLPSVSVTLRQTARITCGGDIIGSKNVYWYQQRLGQAPVLIIYRDNNRPTGIPERFSGASSGNTATLTISGALAEDEADYYCQVWDNSNKAMFGGGTHLTVL
notes: also called PMX63
GEO mean difference [1]: 3.15e+06
% Signal Inhibition Average [2]: 74.4%
% Signal Inhibition Rep1 [2]: 68.3%
% Signal Inhibition Rep2 [2]: 83%
% Signal Inhibition Rep3 [2]: 72%
koff [3]: 5.21 s⁻¹
Kd [4]: 0.271 nM
GEO mean OX40L expressing HEK [5]: 3.18e+06
koff [6]: 9.05e-05 s⁻¹

B4: PMX155 (antibody, V domains shown)
VH: ELHLVESGGDLVKPAGSLRLSCVASGFTFSSFRMSWVRQSPGKGLQFVAGINSDGYNTQYRDDVKGRFTISRDNTEKTLYLQMNNLRVEDTAMYYCVKDQGSWGGNFDFWGQGTLVTVSS
VL: SYGLTQPPSVNVTLRETAHITCGGDSIGSKYVQWIQQIPGQAPVVIIYKDRNRPTGIPERFSGANSGNTATLTISGALAEDEADYYCQVGDSGTSVFGGGTHLTVL
GEO mean difference [1]: 730000
% Signal Inhibition Average [2]: 32.7%
% Signal Inhibition Rep1 [2]: 19.9%
% Signal Inhibition Rep2 [2]: 37.4%
% Signal Inhibition Rep3 [2]: 40.9%
koff [3]: 0.000294 s⁻¹
Kd [4]: 90.6 nM
GEO mean OX40L expressing HEK [5]: 738000
koff [6]: 0.032 s⁻¹

B5: PMX156 (antibody, V domains shown)
VH: B4 VH with H3Q, S31N, S40A, N57S, F109Y
VL: B4 VL
GEO mean difference [1]: 672000
% Signal Inhibition Average [2]: 35.1%
% Signal Inhibition Rep1 [2]: 21.6%
% Signal Inhibition Rep2 [2]: 34.5%
% Signal Inhibition Rep3 [2]: 49.1%
koff [3]: 0.000238 s⁻¹
Kd [4]: 1980 nM
GEO mean OX40L expressing HEK [5]: 680000
koff [6]: 0.102 s⁻¹

B6: PMX154 (antibody, V domains shown)
VH: EVQLVESGGDLVKPEGSLRLSCVVSGFTFSGFDMSWVRQAPGKGLQWVAYISTDGRSTGYTDAVKGRFTISRDNVKNTLYLQMNSLRTEDTAVYYCAKETRHWGFDYWGQGTLVIVSS
VL: SYVLTQLSSVSVSLRQTAHITCGGDSIGRKNVYWHQQKLGRAPILIIYDDSSRPSGIPERFSGANSGNTATLTISGALAEDEAAYYCQVWDSSTSVFGGGTHLTVL
GEO mean difference [1]: 781000
% Signal Inhibition Average [2]: 63.7%
% Signal Inhibition Rep1 [2]: 62.6%
% Signal Inhibition Rep2 [2]: 77.2%
% Signal Inhibition Rep3 [2]: 51.5%
koff [3]: 6.94 s⁻¹
Kd [4]: 15.6 nM
GEO mean OX40L expressing HEK [5]: 789000
koff [6]: 0.00384 s⁻¹

B7: PMX029 (antibody, V domains shown)
VH: EVQLVESGGDLVKPGGSLRLSCVASGFTFSSYHMNWVRQAPGKGLQWVAYINTGGSRTSYADAVKGRFTISRDNAKNTLYLQMNSLRAEDTAVYYCANNYWDNFDSWGQGTLVTVSS
VL: SYELTQPPSVNVTLRETAHITCGGDSIGSKYVQWIQQNPGQAPVVIIYKDTNRPTGIPERFSGANSGNTATLTISGALAEDEADYYCQVGDSGTKASVFGGGTHLTVL
notes: also called PMX29
GEO mean difference [1]: 1.06e+06
% Signal Inhibition Average [2]: 69.4%
% Signal Inhibition Rep1 [2]: 75.8%
% Signal Inhibition Rep2 [2]: 76.2%
% Signal Inhibition Rep3 [2]: 56%
koff [3]: 0.000779 s⁻¹
Kd [4]: 51.6 nM
GEO mean OX40L expressing HEK [5]: 1.09e+06
koff [6]: 0.0294 s⁻¹

B8: PMX065 (antibody, V domains shown)
VH: EVQLVESGGDLVKPGGSLRLSCVASGFTFNNYEMYWVRQAPGKGLEWVARIYESGSTTFSAEAVTGRFTISRDNAKNMVYLQMNSLRAEDTAVYYCASASSSSWRFDYWGQGTLVTVSS
VL: SYVLTQLPSVSVTLGQTARITCGGDSIGRKNVCWFQQRLGQAPELIIYDDRSRPSGIPERFSGANSGNTATLTISGALAEDEADYYCQVWDSSTGVFGGGTHLTVL
notes: also called PMX65
GEO mean difference [1]: 3.52e+06
% Signal Inhibition Average [2]: 72.6%
% Signal Inhibition Rep1 [2]: 62.7%
% Signal Inhibition Rep2 [2]: 85.3%
% Signal Inhibition Rep3 [2]: 69.9%
koff [3]: 0.412 s⁻¹
Kd [4]: 107 nM
GEO mean OX40L expressing HEK [5]: 3.55e+06
koff [6]: 0.0125 s⁻¹

B9: PMX030 (antibody)
heavy: EVQLVESGGDLVKPGGSLRLSCVASGFTFSNYHMNWVRQAPGKGLQWVAYVVSGGSTTSYADAVKGRFTISRDNAKNTLYLQMNSLRAEDTAVYYCAKGTSSWGVPMDYWGHGTSLFVSSASTTAPSVFPLAPSCGSTSGSTVALACLVSGYFPEPVTVSWNSGSLTSGVHTFPSVLQSSGLYSLSSMVTVPSSRWPSETFTCNVAHPASKTKVDKPVPKRENGRVPRPPDCPKCPAPESLGGPSVFIFPPKPKDTLLIARTPEVTCVVVDLGREDPEVQISWFVDGKQMQTAKTQPREEQFNGTYRVVSVLPIGHQDWLKGKQFTCKVNHIGLPSPIERTISKARGQAHQPSVYVLPPSREELSKNTVSLTCLIKDFFPPDIDVEWQSNGQQEPESKYRTTPPQLDEDGSYFLYSKLSVDKSRWQRGDTFICAVMHEALHNHYTQKSLSHSPGK
VL: B8 VL with G15R, G28R, R29S, C33Y, F35Y, R38K, E44V, R51S, G95S
notes: also called PMX30
GEO mean difference [1]: 1.39e+06
% Signal Inhibition Average [2]: 65.6%
% Signal Inhibition Rep1 [2]: 70.6%
% Signal Inhibition Rep2 [2]: 83.9%
% Signal Inhibition Rep3 [2]: 42.3%
koff [3]: 0.000924 s⁻¹
Kd [4]: 114 nM
GEO mean OX40L expressing HEK [5]: 1.42e+06
koff [6]: 0.0283 s⁻¹

B10: PMX031 (antibody)
heavy: B9 heavy with S56T, S59T, S102T
VL: B8 VL with G15R, G28R, R29S, C33Y, F35Y, Q37K, R38K, E44V, R51S, G95S
notes: also called PMX31
GEO mean difference [1]: 1.51e+06
% Signal Inhibition Average [2]: 78.4%
% Signal Inhibition Rep1 [2]: 83.5%
% Signal Inhibition Rep2 [2]: 89.1%
% Signal Inhibition Rep3 [2]: 62.7%
koff [3]: 0.000606 s⁻¹
Kd [4]: 154 nM
GEO mean OX40L expressing HEK [5]: 1.55e+06
koff [6]: 0.0124 s⁻¹

B11: PMX038 (antibody, V domains shown)
VH: EVQLVESGGDLVKPGGSLRLSCVASGFTFSSYHMSWVRQAPGKGLQWVAYITSGGRTTSYADAVKGRFTISRDNAKNTLYLQMKSLRAEDTAVYYCARDLVLVLGGAEYWGQGTLVTVSS
VL: SYELTQPPSVNVTLRETAHITCGGDSIGRKYVQWIQQNPGQAPVVIIYKDSNRPTGIPERFSGANSGNTATLTISGALAEDEADYYCQVGDSGSKAVFGGGTHLTVL
notes: also called PMX38
GEO mean difference [1]: 1.53e+06
% Signal Inhibition Average [2]: 68.5%
% Signal Inhibition Rep1 [2]: 79.8%
% Signal Inhibition Rep2 [2]: 75%
% Signal Inhibition Rep3 [2]: 50.8%
koff [3]: 0.000796 s⁻¹
Kd [4]: 100 nM
GEO mean OX40L expressing HEK [5]: 1.56e+06
koff [6]: 0.0105 s⁻¹

B12: PMX064 (antibody, V domains shown)
VH: B11 VH with R56I, K84N, R98S, V103I, E108D
VL: B11 VL with R15S, S94T
notes: also called PMX64
GEO mean difference [1]: 3.42e+06
% Signal Inhibition Average [2]: 91.1%
% Signal Inhibition Rep1 [2]: 88.9%
% Signal Inhibition Rep2 [2]: 94.8%
% Signal Inhibition Rep3 [2]: 89.7%
koff [3]: 0.000921 s⁻¹
Kd [4]: 145 nM
GEO mean OX40L expressing HEK [5]: 3.45e+06
koff [6]: 0.0352 s⁻¹

B13: PMX045 (antibody, V domains shown)
VH: B11 VH with S35T, R56I, K84S, V93M, V103L, E108D
VL: B11 VL with S94T
notes: also called PMX45
GEO mean difference [1]: 1.44e+06
% Signal Inhibition Average [2]: 75.9%
% Signal Inhibition Rep1 [2]: 79.9%
% Signal Inhibition Rep2 [2]: 81.7%
% Signal Inhibition Rep3 [2]: 66.2%
koff [3]: 0.000554 s⁻¹
Kd [4]: 10.4 nM
GEO mean OX40L expressing HEK [5]: 1.47e+06
koff [6]: 0.00484 s⁻¹

B14: PMX042 (antibody, V domains shown)
VH: B11 VH with R56S, K84D, E89D, R98S, V103L, E108D
VL: B11 VL with N38H, S51Y, S94T
notes: also called PMX42
GEO mean difference [1]: 1.48e+06
% Signal Inhibition Average [2]: 78.8%
% Signal Inhibition Rep1 [2]: 77.8%
% Signal Inhibition Rep2 [2]: 87.5%
% Signal Inhibition Rep3 [2]: 71%
koff [3]: 0.00056 s⁻¹
Kd [4]: 274 nM
GEO mean OX40L expressing HEK [5]: 1.51e+06
koff [6]: 0.0292 s⁻¹
